Results as given in patent US20240294611A1 (University of Texas, published 2024).
Where “and” joins values, the source holds several entries; their conditions need not be identical. Identical values can stand only once. Like-named read-outs stand apart in the source and are kept apart here.

Columns and labels:
[1] = target: T1, aglycosylated HexaPro (HexaPro treated with Endo H) (SARS-CoV-2, UniProt P0DTC2 14-1208); test: BLI equilibrium, IgG on anti-Fc tips
HexaPro E1031R = HexaPro E1031R (SARS-CoV-2, UniProt P0DTC2 14-1208)
[2] = target: T1, aglycosylated HexaPro (HexaPro treated …); test: BLI equilibrium, IgG on anti-Fc sensor
[3] = target: T2, SARS-CoV-2 D614G spike without stabilizing modifications (on cells or pseudovirus) (SARS-CoV-2, UniProt P0DTC2 14-1273); test: cell-based or functional assay
[4] = target: SARS-CoV-2 B.1.1.7 (variant Alpha) spike on pseudovirus (SARS-CoV-2, UniProt P0DTC2 14-1273); test: cell-based or functional assay
[5] = target: T3, wild-type SARS-CoV-2 spike without stabilizing modifications (on cells or pseudovirus) (SARS-CoV-2, UniProt P0DTC2 14-1273); test: cell-based or functional assay
[6] = target: T2, SARS-CoV-2 D614G spike without …; test: cell-based or functional assay; remark: listed apart in the source
[7] = target: T3, wild-type SARS-CoV-2 spike without …; test: cell-based or functional assay; remark: listed apart in the source
[8] = target: T4, SARS-CoV-2 HexaPro S2 (isolated S2 domain) (SARS-CoV-2, UniProt P0DTC2 697-1208)
[9] = target: T4, SARS-CoV-2 HexaPro S2 (isolated S2 …); remark: listed apart in the source
[10] = target: T4, SARS-CoV-2 HexaPro S2 (isolated S2 …); remark: listed apart in the source
[11] = target: T4, SARS-CoV-2 HexaPro S2 (isolated S2 …); remark: listed apart in the source
[12] = target: T4, SARS-CoV-2 HexaPro S2 (isolated S2 …); remark: listed apart in the source
[13] = target: soluble SARS-CoV-2 spike protein variant 4PDS (SARS-CoV-2, UniProt P0DTC2 14-1208)
[14] = target: T4, SARS-CoV-2 HexaPro S2 (isolated S2 …); test: BLI equilibrium, IgG on anti-Fc tips
[15] = target: T4, SARS-CoV-2 HexaPro S2 (isolated S2 …); test: BLI; column head says Fab Kd, footnote says immobilized IgG

B1: 3A3 full-length antibody (mouse variable region-human IgG1 constant region chimera) (antibody, V domains shown)
VH: QVQLQQSGAELLKPGASVKLSCTASGFNIKDTYIHWLKQRPEQGLEWIGRIGPAIGNTIYAPKFQGKATITTDTSSNTAYLQLSSLTSEDTAVYYCARYYGSSYYYFDYWGQGTTLTVSS
VL: DIVMTQSAPSVPVTPGESVSISCRSSKSLLHSNGNTYLYWFLQRPGQSPQLLIYRMSNLASGVPDRFSGSGSGTAFTLRISRVEAEDVGVYYCMQYLEYPLTFGAGTKLELKR
Which results are given for B1?
Kd [1]: 7.9 nM; Kd (HexaPro E1031R): 1.5 nM; kon (HexaPro E1031R): 2.88e+06 M⁻¹ s⁻¹; Kd [2]: 8.4 nM; Pseudovirus IC50 [3]: 94 nM; Pseudovirus IC50 [4]: 119 nM; Pseudovirus IC50 [5]: 212 nM; IC50 of pseudovirus entry (FIG. 3A) [6]: 2.05 µg/mL; IC50 of pseudovirus infection (FIG. 3A) [6]: ~14 nM; IC50 of pseudovirus entry (FIG. 3A) [7]: 25.6 µg/mL; IC50 of pseudovirus infection (FIG. 3A) [7]: ~173 nM

B2: 3A3 Fab (mouse Fab fragment) (Fab, V domains shown)
VH: QVQLQQSGAELLKPGASVKLSCTASGFNIKDTYIHWLKQRPEQGLEWIGRIGPAIGNTIYAPKFQGKATITTDTSSNTAYLQLSSLTSEDTAVYYCARYYGSSYYYFDYWGQGTTLTVSS
VL: DIVMTQSAPSVPVTPGESVSISCRSSKSLLHSNGNTYLYWFLQRPGQSPQLLIYRMSNLASGVPDRFSGSGSGTAFTLRISRVEAEDVGVYYCMQYLEYPLTFGAGTKLELKR
B2 was tested. Which Kd [8] did it give?
Its Kd is ~2.5 nM.

What about the koff [8] of the same binder?
The koff was 0.005 s⁻¹.

What about the kon [8] of the same binder?
The kon was ~2e+06 M⁻¹ s⁻¹.

And the Kd [9]?
The Kd was 2.2 nM and 3.2 nM.

And the Kd [10]?
The Kd was 2.2 nM.

And the koff [10]?
The koff was 0.0049 s⁻¹.

And the kon [10]?
Its kon is 2.3e+06 M⁻¹ s⁻¹.

What about the Kd [11] of the same binder?
Its Kd is 3.2 nM.

What about the Kd [12] of the same binder?
The Kd was 3.6 nM.

What about the koff [12] of the same binder?
The koff was 0.0046 s⁻¹.

And the kon [12]?
The kon was 1.3e+06 M⁻¹ s⁻¹.

B3: combination of AM3A3-5 heavy chain with unmodified hu3A3 (WT; ven3A3) light chain (antibody, V domains shown)
VH: QVQLVQSGAEVLKPGASVKLSCKASGFNIKDTYIHWLKQAPGQRLEWIGRIGPAIGNTIYAPKFQGKATITTDTSASTAYLELSSLRSEDTAVYYCARYYGYAYYYFDYWGQGTTVTVSS
VL: DIVMTQSPLSVPVTPGEPVSISCRSSKSLLHSNGNTYLYWFLQKPGQSPQLLIYRMSNLASGVPDRFSGSGSGTAFTLKISRVEAEDVGVYYCMQYLEYPLTFGAGTKLEIK
Which “Fold improvement over WT/WT” value [13] does the source give for B3 here?
The value was 0.5 fold.

B4: combination of AM3A3-3 heavy chain with AM3A3-5 light chain (antibody, V domains shown)
VH: QVQLVQSGADVLKPGASVKLSCKASGFNIKNTYIHWLKQAPGQRLEWIGRIGPAIGNTIYAPKFQGKATITTDTSASTAYLELSSLRSEDTAVYYCARYYGSSYYYLDYWGQGTTVTVSS
VL: DIVMTQSPLSVPVTPGEPVSISCRSSKSLLHSNGNTYLYWFLQKPGQSPQLLIARMSTLASGVPDRFSGSGSGTAFTLKISRVEAEDVGVYYCMQYLEYPLTFGAGTKLEIK
For B4, which “Fold improvement over WT/WT” value [13] is on record?
Its value is 95.6 fold.

B5: AM3A3-5 (affinity matured humanized 3A3) (antibody, V domains shown)
VH: QVQLVQSGAEVLKPGASVKLSCKASGFNIKDTYIHWLKQAPGQRLEWIGRIGPAIGNTIYAPKFQGKATITTDTSASTAYLELSSLRSEDTAVYYCARYYGYAYYYFDYWGQGTTVTVSS
VL: DIVMTQSPLSVPVTPGEPVSISCRSSKSLLHSNGNTYLYWFLQKPGQSPQLLIARMSTLASGVPDRFSGSGSGTAFTLKISRVEAEDVGVYYCMQYLEYPLTFGAGTKLEIK
For B5, which “Fold improvement over WT/WT” value [13] is on record?
The value was 50.5 fold.

B6: combination of unmodified hu3A3 (WT; ven3A3) heavy chain with AM3A3-5 light chain (antibody, V domains shown)
VH: QVQLVQSGAEVLKPGASVKLSCKASGFNIKDTYIHWLKQAPGQRLEWIGRIGPAIGNTIYAPKFQGKATITTDTSASTAYLELSSLRSEDTAVYYCARYYGSSYYYFDYWGQGTTVTVSS
VL: DIVMTQSPLSVPVTPGEPVSISCRSSKSLLHSNGNTYLYWFLQKPGQSPQLLIARMSTLASGVPDRFSGSGSGTAFTLKISRVEAEDVGVYYCMQYLEYPLTFGAGTKLEIK
B6 was tested. Which “Fold improvement over WT/WT” value [13] did it give?
Its value is 63.7 fold.

B7: combination of unmodified hu3A3 (WT; ven3A3) heavy chain with AM3A3-3 light chain (antibody, V domains shown)
VH: QVQLVQSGAEVLKPGASVKLSCKASGFNIKDTYIHWLKQAPGQRLEWIGRIGPAIGNTIYAPKFQGKATITTDTSASTAYLELSSLRSEDTAVYYCARYYGSSYYYFDYWGQGTTVTVSS
VL: DIVMTQSPLSVPVTPGEPVSISCRSSKSLHHSNGNTYLYWFLQKPGQSPQLLIYRMSNLASGVPDRFSGSGNGTAFTLKISRVEAEDVGVYYCMQYLEYPLTFDAGTKLEIK
How did the “Fold improvement over WT/WT” value [13] turn out when B7 was run?
Its value is 13.7 fold.

B8: combination of AM3A3-5 heavy chain with AM3A3-3 light chain (antibody, V domains shown)
VH: QVQLVQSGAEVLKPGASVKLSCKASGFNIKDTYIHWLKQAPGQRLEWIGRIGPAIGNTIYAPKFQGKATITTDTSASTAYLELSSLRSEDTAVYYCARYYGYAYYYFDYWGQGTTVTVSS
VL: DIVMTQSPLSVPVTPGEPVSISCRSSKSLHHSNGNTYLYWFLQKPGQSPQLLIYRMSNLASGVPDRFSGSGNGTAFTLKISRVEAEDVGVYYCMQYLEYPLTFDAGTKLEIK
How did the “Fold improvement over WT/WT” value [13] turn out when B8 was run?
Its value is 4.3 fold.

B9: AM3A3-3 (affinity matured humanized 3A3) (antibody, V domains shown)
VH: QVQLVQSGADVLKPGASVKLSCKASGFNIKNTYIHWLKQAPGQRLEWIGRIGPAIGNTIYAPKFQGKATITTDTSASTAYLELSSLRSEDTAVYYCARYYGSSYYYLDYWGQGTTVTVSS
VL: DIVMTQSPLSVPVTPGEPVSISCRSSKSLHHSNGNTYLYWFLQKPGQSPQLLIYRMSNLASGVPDRFSGSGNGTAFTLKISRVEAEDVGVYYCMQYLEYPLTFDAGTKLEIK
B9 was tested. Which “Fold improvement over WT/WT” value [13] did it give?
Its value is 63.3 fold.

B10: combination of AM3A3-3 heavy chain with unmodified hu3A3 (WT; ven3A3) light chain (antibody, V domains shown)
VH: QVQLVQSGADVLKPGASVKLSCKASGFNIKNTYIHWLKQAPGQRLEWIGRIGPAIGNTIYAPKFQGKATITTDTSASTAYLELSSLRSEDTAVYYCARYYGSSYYYLDYWGQGTTVTVSS
VL: DIVMTQSPLSVPVTPGEPVSISCRSSKSLLHSNGNTYLYWFLQKPGQSPQLLIYRMSNLASGVPDRFSGSGSGTAFTLKISRVEAEDVGVYYCMQYLEYPLTFGAGTKLEIK
For B10, which “Fold improvement over WT/WT” value [13] is on record?
Its value is 11.6 fold.

B11: humanized 3A3 with ven3A3VH and ven3A3VL (antibody, V domains shown)
VH: QVQLVQSGAEVLKPGASVKLSCKASGFNIKDTYIHWLKQAPGQRLEWIGRIGPAIGNTIYAPKFQGKATITTDTSASTAYLELSSLRSEDTAVYYCARYYGSSYYYFDYWGQGTTVTVSS
VL: DIVMTQSPLSVPVTPGEPVSISCRSSKSLLHSNGNTYLYWFLQKPGQSPQLLIYRMSNLASGVPDRFSGSGSGTAFTLKISRVEAEDVGVYYCMQYLEYPLTFGAGTKLEIK
With B11 as the binder, how does the “Fold improvement over WT/WT” value [13] read?
Its value is 1 fold.

B12: 4H2 full-length antibody (mouse variable region-human IgG1 constant region chimera) (antibody, V domains shown)
VH: EVQVVESGGGLVQPGGSRKLSCAASGFTFSSYGMSWVRQTPDKRLEWVATISSGGSYTYYPDSVKGRFTISRDNAKNNLYLQMSSLKSEDTAMYYCARDGYGNYVGMDYWGQGTSVTVSS
VL: DIVLTQSPAIMSASPGEKVTITCSASSSVSYMHWFQQKPGTSPKLWIYSTSNLASGVPARFSGSGSGTSYSLTISSMEAEDAATYYCQQWSSNSYTFGGGTKLEIKR
For B12, which Kd [14] is on record?
The Kd was 63 nM.

What about the Kd [1] of the same binder?
The Kd was 9 nM.

And the Kd [2]?
The Kd was 9 nM.

What about the Kd [15] of the same binder?
Its Kd is 63 nM.

B13: 4A5 full-length antibody (mouse variable region-human IgG1 constant region chimera) (antibody, V domains shown)
VH: QVQLQQSGAELAKPGASVKMSCKASGYTFTSYWMHWVKQRPGQGLEWVGMIDPSNSETRLNQKFKDKATLNVDKSSNTAYMQLSSLTSEDSAVYYCARLGRYWGQGTTLTVSS
VL: DIVMTQSHKFMSTSVGDRVSITCKASQNVGANVAWYQQKPGQSPKALIYSASYRYSGVPDRFTGSGSGTDFTLTISNVQSEDLAEYFCQQYNSYPYTSGGGTKLEIKR
How did the Kd [14] turn out when B13 was run?
The Kd was 11 nM.

And the Kd [1]?
The Kd was 10 nM.

What about the Kd [2] of the same binder?
Its Kd is 10 nM.

What about the Kd [15] of the same binder?
Its Kd is 11 nM.
